Target: T1, TLR4 (Homo sapiens, UniProt O00206+Q9Y6Y9)
T1 construct: host or cells: HEK293 stably transfected with TLR4 (HEK/TLR4)
Experiment: HEK cell activation assay: extracellular IL-8 by ELISA
Format: cell-based
Text: Conditioned insect cell culture medium containing soluble, polyhistidine-tagged recombinant wild-type (wt) or C95Y mutant MD-2 were generated according to the method of Viriyakosol et al. (2001). A human embryonic kidney cell line (HEK293) that stably expresses TLR4 (HEK/TLR4), but lacks both CD14 and MD-2 (Yang et al., 2000), was used to evaluate the effect of MD-2 on the ability of lipooligosaccharide (LOS) to interact with TLR4 and promote activation.
FIG. 1 depicts the expression and bioactivity of recombinant MD-2-His6. FIGS. 1A and 1B depict SDS-PAGE immunoblots of control culture medium (FIG. 1A, lane 1) or medium from HiFive cells infected with recombinant baculovirus encoding wt (FIG. 1A, lane 2; FIG. 1B, lanes 1–3) or C95Y MD-2 (FIG. 1B, lane 4). MD-2 was detected using anti-(His)4 antibody. All samples represent 1 μl of culture medium except B, lanes 2 and 3, which represent 0.3 and 0.1 μl and A, lane 3, which represents molecular weight markers. In FIG. 1C, HEK/TLR4 cells were incubated in HEPES-buffered HBSS+/0.1% albumin with [^14C]-LOSagg (3 ng/ml)+/−LBP (30 ng/ml) and/or (60 μl) culture medium containing wt MD-2 (MD-2) (open bars); LOSagg+LBP and sCD14 (250 ng/ml)+/−wt (closed bars) or C95Y “MD-2” (striped bars), or [^14C]-LOS-sCD14 (2 ng LOS/ml)+/−wt or C95Y “MD-2” (closed bars). After overnight incubation, extracellular IL-8 was assayed by ELISA. In FIG. 1D, HEK/TLR4 cells were incubated with increasing amounts of wt (▪) or C95Y (◯) MD-2+[^14C]-LOS-sCD14 (2 ng/ml) and cell activation measured. Results shown are from one experiment (duplicate samples) representative of four independent experiments.
In FIG. 2, a bioactive complex (Mr˜25,000) containing MD-2 and [^14C]-LOS is formed by incubation of [^14C]-LOS-sCD14 with wt, but not C95Y, MD-2. In FIG. 2A, dialyzed control insect cell medium (◯) or medium containing wt (♦) or C95Y ( ? ) MD-2 was incubated for 30 min, 37° C. with (1:1 vol/vol) [^14C]-LOS-sCD14 in HBSS+, 10 mM HEPES and chromatographed on Sephacryl S100. Column fractions were analyzed for [^14C]-LOS. Identical results were obtained in analytical (5 ng [^14C]-LOS/ml+200 μl culture medium) or more preparative runs (reagents concentrated 20×). In FIG. 2B, peak fractions (Mr˜25,000) from treatment of [^14C]-LOS-sCD14 with wt MD-2 (FIG. 2A) were re-chromatographed on S100 in HBSS+, 10 mM HEPES without HSA; recovery of [^14C]-LOS was >80%. In FIG. 2C, HEK (□) or HEK/TLR4 (▪) were incubated overnight with the indicated amounts of LOS added as purified Mr˜25,000 (LOS-MD-2) complex. Cell activation was measured by IL-8 accumulation. Results shown correspond to one experiment, in duplicate, representative of three similar experiments. FIGS. 2D and 2E depict adsorption and elution of bioactive Mr˜25,000 complex to HisBind resin. Peak fractions of the purified complex (FIG. 2B; 10 ng [^14C]-LOS) were dialyzed against PBS and incubated with HisBind resin (0.125 ml) for 1 hr at 25° C. and processed as described in Methods. Non-adsorbed (Flow-thru) and adsorbed material eluted with 200 mM imidazole were precipitated with trichloroacetic acid to concentrate sample for SDS-PAGE/immunoblot analysis. […]
Purified [^14C]-LOSagg or [^14C]-LOS-sCD14 (3 ng LOS/ml)+/−indicated proteins (30 ng/ml LBP, 250 ng/ml sCD14, 60 μl culture medium) were incubated at 37° C. for 30 min. After this incubation, samples were analyzed by gel filtration chromatography to monitor formation of [^14C]-LOS-MD-2 and by incubation with HEK/TLR4 cells to measure cell activation. […]

T1 sequence (O00206 24-839, one chain of several): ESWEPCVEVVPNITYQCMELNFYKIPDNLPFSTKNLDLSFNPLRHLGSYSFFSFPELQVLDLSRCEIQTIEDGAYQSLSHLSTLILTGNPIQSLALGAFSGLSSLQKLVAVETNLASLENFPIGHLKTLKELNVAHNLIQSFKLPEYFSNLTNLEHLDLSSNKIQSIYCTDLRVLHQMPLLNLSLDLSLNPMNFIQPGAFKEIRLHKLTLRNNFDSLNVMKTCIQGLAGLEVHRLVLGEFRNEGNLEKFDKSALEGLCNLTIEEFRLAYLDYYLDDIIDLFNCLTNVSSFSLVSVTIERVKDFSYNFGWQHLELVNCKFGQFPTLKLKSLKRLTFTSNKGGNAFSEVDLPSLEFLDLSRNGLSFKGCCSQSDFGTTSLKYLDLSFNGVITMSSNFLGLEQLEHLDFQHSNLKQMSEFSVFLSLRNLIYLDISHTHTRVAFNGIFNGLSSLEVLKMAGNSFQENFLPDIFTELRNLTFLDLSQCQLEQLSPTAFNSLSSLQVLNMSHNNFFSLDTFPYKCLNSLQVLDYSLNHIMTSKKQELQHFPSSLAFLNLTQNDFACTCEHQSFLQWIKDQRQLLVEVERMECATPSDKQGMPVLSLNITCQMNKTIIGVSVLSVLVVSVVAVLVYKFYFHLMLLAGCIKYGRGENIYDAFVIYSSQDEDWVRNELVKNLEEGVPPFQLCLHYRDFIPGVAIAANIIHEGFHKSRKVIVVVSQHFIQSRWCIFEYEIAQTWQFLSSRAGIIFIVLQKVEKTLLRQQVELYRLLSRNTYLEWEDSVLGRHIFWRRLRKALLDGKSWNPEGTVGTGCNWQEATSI

B1: wt MD-2: soluble polyhistidine-tagged recombinant wild-type MD-2 in conditioned insect cell culture medium (protein)
chain: QKQYWVCNSSDASISYTYCDKMQYPISINVNPCIELKRSKGLLHIFYIPRRDLKQLYFNLYITVNTMNLPKRKEVICRGSDDDYSFCRALKGETVNTTISFSFKGIKFSKGKYKCVVEAISGSPEEMLFCLEFVILHQPNSNHHHHHH
- MD-2 concentration producing maximum cell activation (HEK/TLR4 with [^14C]-LOS-sCD14 (2 ng/ml)): 30 ng/mL
- activation of HEK/TLR4 cells by LOS-sCD14 (or LOSagg+LBP+sCD14) on addition of medium containing MD-2 (IL-8 release, LOS-sCD14 2 ng LOS/ml): robust activation
- inhibition of activation of HEK/TLR4 by [^14C]-LOS-MD-2 by added MD-2 ([^14C]-LOS-MD-2 0.3 ng/ml, increasing amounts of conditioned medium): dose-dependent inhibition

Reference: patent US7164008B2, “Isolated complexes of endotoxin and MD-2” (priority 2003, dated 2007)
